Columns and labels:
Assay type in all cases: biochemical, Quillaja saponaria
[1] = Experiment 6-1: screening of rhamnosidases for derhamnosylation of saponins in treated bark extract (2%), desglucosyl-QS-17 2134 to QS-21 1988 (PAR %); conditions: TBE 2%, pH 7.5, 30 degC, 18 h; TIC peak area ratio percent, LCMS/MS; negative controls 2.719, 2.158
[2] = Experiment 6-3: screening of rhamnosidases for derhamnosylation of saponins in crude bark extract (80%), relative % of Left, Middle and Right Peak by UV HPLC; conditions: CBE 80%, pH 7.4, 30 degC, 19.5 h; for Left Peak: mainly QS-17 family, negative control 27%; for Middle Peak: mainly QS-18 and desglucosyl-QS-17 family, negative control 48%; for Right Peak: mainly QS-21 family, negative control 26%
Summary of the method: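 Clarified lysates of expressed rhamnosidase variants were incubated with crude bark extract (pH 7.4, final 80%) at 30 degC with shaking for 19.5 h, then quenched with MeCN+2% AcOH. UV HPLC gave relative % of Left (QS-17), Middle (QS-18/desglucosyl-QS-17) and Right (QS-21) peaks.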

[3] = Experiment 6-1: screening of rhamnosidases for derhamnosylation of saponins in treated bark extract (2%), QS-17 2296 to QS-18 2150 (PAR %); conditions: TBE 2%, pH 7.5, 30 degC, 18 h; TIC peak area ratio percent of rhamnosylated starting saponin to derhamnosylated product, LCMS/MS; negative controls 4.876, 5.225
[4] = Experiment 6-2: screening of rhamnosidases for derhamnosylation of saponins in treated bark extract (25%), relative % of Left, Middle and Right Peak by UV HPLC; conditions: TBE 25%, pH 7.4, 19.5 h; for Left Peak: mainly QS-17 family, negative control 24%; for Middle Peak: mainly QS-18 and desglucosyl-QS-17 family, negative control 50%; for Right Peak: mainly QS-21 family, negative control 26%
[5] = Experiment 6-1: screening of rhamnosidases for derhamnosylation of saponins in treated bark extract (2%), QS-17 2310 to QS-18 2164 (PAR %); conditions: TBE 2%, pH 7.5, 30 degC, 18 h; TIC peak area ratio percent, LCMS/MS; negative controls 3.061, 2.429
[6] = Experiment 6-1: specificity of rhamnosidases towards other rhamnose residues (C3 saccharide rhamnose, C28 saccharide rhamnose); conditions: TBE 2%, pH 7.5, 30 degC, 18 h; LCMS/MS; negative controls 0.18, 0.17

| Molecule | Peak75 (PAR %) [1] [%] | Left Peak [2] [%] | Middle Peak [2] [%] | Right Peak [2] [%] | QS-17 (PAR %) [3] [%] | Left Peak [4] [%] | Middle Peak [4] [%] | Right Peak [4] [%] | Peak57 (PAR %) [5] [%] | ratio PP/QS-21 [6] |
| --- | --- | --- | --- | --- | --- | --- | --- | --- | --- | --- |
| 1003 (protein, listed as Rahnella aquatilis) MPAVIRLTLNQESALSGVQQLPVLGWEIESRNRNVRQTAYRLQISQDQDFDNILLRGEWQESECSNNIPLTELMLTSSQHYFIRVQVRDNYGETSGWSSPAQMITGVLYPHEWLADFITAETSADKDNSHATLLRKSFVLNRAQDIQSAFIHVSALGLYELYLNGHKAGEDALTPGWTSYHNHLLYQTYDVTGHLEKGENVIGAILGAGWYKGDMGFSRHRNYYGERSALISQLVINYNDGSQEIVISDESWKGQDSAILFSEIYDGEIYDARREIPGWCTKDVSGEGWRPVSLVTHEKSTLVAQGSNTVRKMAEIKPVALITTPQGDTVIDFGQNLSGWVEFRVSGKAGDEVVLRHFEVLDADGNVYLDNLRTARQRTAYVLKGEGEEIWHPHFTWQGFRFVKVEEYPGQWDLNNFTAIVLHSAMEQTGHFACSNPQLNQLHHNILWGLKGNFVDVPTDCPQRDERLGWTGDAQIFCRTASYLMQTRNFFAKWLTDLRYDQTPEGGVPHVIPDILTGYCGKDRLLSEGGTHSASAWADAAVINPWTMYLMYGDTCVLENQYASMKGWIDFMTAHAENHIWHYKLQFGDWVALDAKEGSYFGATPNDLTCTAYYAYSTQLFAKAAKVLNRTEDYDHYHALYQAIVRRFQEAFFTPSGQLAARTQTAHILALYFNLVPDEFRQRTTDTLVELLNEHDGHLVTGFVGTPYFCHALSQNGRTKEAWNLLLKEDFPSWLYQVKAGATTVWEHWDGIKPDGSMWSADMNSFNHYAYGAVGEWLYRVAAGIEADEAQPGFKHFIIKPLTGGGLSWLDTRYQSIYGAIGVRWEVSGQTVFLNVTVPANTSATVVLTDGQSVQEADGIDFARCAEGYTAEVGSGEYRIEYRLV | 0.000 | 27 | 47 | 26 | 0.000 | 7 | 63 | 31 | 0.000 | 0.19 |
| 990 (protein, listed as Streptomyces bingchenggensis) MISRRNLLGTATAAGPALTGLTALAATTGKAEAAEPGYGGLRVEKTTVEYADRPLGLDAPHPRLSWQLGSDRRNQSQSAYQLRVATSPGRIGAPDVWDSGKVSSHQSVLVPYDGPKLRARTRYHWAVRVWDGQGRPSPWSEPTWWETGLGTEDEGAARWVAAPDTVTRGPDLAKADWVWYPEGDPASSAPAGTRYFRGSLDVSGSVRLARLALVADDGFTAWVNGTEIGGRAPVQENWRHPVVVDVTALLREGANTIAVAAVNASSSPAGLLGVLELTDTDGVRSLTTSAAWKATDTEPSGDWHLPAYDDGGWAAAKVLAPWGGGPWGRVRAAQRPALVRRDFRLAAKPVARARLYSTALGLYEAEINGHRVGRDQLAPGWTDYRKRVQYQTYDVTDLLRHGANAIGVILASGWYSGSVAWFGQELYGERPALRAELEVTYADGSTDRVTADTHWRCATGPILTADLMAGEEYDARLEVSGWSSPAFDDSLWQSVDVVPADTTSAVSVVAQTDAPVRVARELAAVRVTEPKPGVYVFDLGQNMVGSVRLRVRGEAGRTVRLRHAEVLDKDGMLYTANLRTAQATDSYTLKGSGTETFEPRFTFHGFRYVEVTGYPGTPDTKSVTGRVMHTGAPFTMSFTTDVPMLDQLHRNITWGQRGNFLSVPTDTPARDERLGWTGDINVFSATAAYTMESARFLAKWLRDLRDGQSDAGAFPDVAPRIGNLGEGTAGWGDAGVTVPWNLYQAYGDRQILADNFPAMRAWITYLEQHSSGCLRPAEGYGDWLNVADETPKDVIATAYFAHSTQLVAKAARVLGHDPAPYDTLAAKVREAFNRAYVSADGTVKGNTQTAYVLALSMDLLPDSARTPAAERLVELIRSKDRHLSTGFLGTPRLLPTLTATGHTDVAYQLLEQRTFPSWGYQIDRGSTTMWERWDSLRPDGSFQDPGMNSFNHYAYGSVGEWMYQNITGIGMGEPGFRSIVIRPRPGGDVHEANGRYDSLYGPITTRWTRANDGAFTLDVSVPVNTTAEVWLPAATSRAASGISHAGATFLRLDDGCAVYGVGSGPYRFTAP | 2.151 | 25 | 47 | 28 | 5.144 | 23 | 51 | 26 | 0.188 | 0.21 |
| 1052 (protein, listed as Microbacterium testaceum) MTTDTRVAAVKAELRTDSPFVATPTPRLTWRVETSTPSWRQASAEITDGATSVPLEGAESALVAWPFAPLEPGERREVRVRVTGVDGAVTAWSAPLAVEAGFLAPDEWVAEPIGLADPEREAQPALVQTAFRLDRPVRRALLLWTALGSAEPEINGRAVSDDVLAPGWSATRDRLVHETVDVTDLLVEGDNVVGATLAGAWYTERYGFFTFTDRIYGDQPAFLAQLRVTFADGTVETVAPTGSAWTATGDAEIVTSGIYAGEHQDLRLRAPWSTPDATTSGTDRRWAPARVGVVARPGHENVPLPEARIAEPVRRHESLPVVARLATPSGGEVLDFGQNLVGRLRLRVRGEAGTTVTIRHAEVLDEGELALRPLRNAKAEASFVLSGGDDVLESRFSFYGFRYAQITGIDVTDAQVEAVVLHSDMERTGWFTSSHALVNRLHENVVWGMRGNFLALPTDCPQRDERLGWTGDLQVFAPTASFLYDCDGFLTSWLRDLALEQERAGGIVPLVIPAALPSFAGGGPVAAWGDAAAVTPTVLHERFGDIGVLAAQYPSMRAWVEAVRADAGDSGLWAGRMQLGDWLDPSAPPDQPGKAKVDGDIVATAYFARSLRQVAEAAALLENTADAETYHALAERSRRAFVSEYVTPAGRMMSDAPTAYALALAFDLVQDAPTRAALADRLAALVRESGYRISTGFVGTPIIADALSDGGHHDAAERLLLQTQCPSWLYPVTQGATTVWERWDSLLPDGSVNPGEMTSFNHYALGAVADWLHRTVAGLAPAAPGYRRLRVAPRPLAAFEHASARHLTAYGPAEVSWEREPGSDVVRVRAIVPPNTTAEVALPGTLADGSEAPAEVGSGTHEWRVTLPAVPVRPPLPGLEAMLADVIDDPRAYAALLDALEETAPERVEGVRSGTVWGAGRPLASALMFTPPDVLARVDRAVRDATA | 0.000 | 25 | 49 | 27 | 0.000 | 9 | 62 | 30 | 0.000 | 0.16 |
| 1073 (protein, listed as Streptomyces scabiei) MSHERATAEGTSAAARTAHRPHESPVHGLTVEHRTDPLGVDADRPRFGWRTRSASRGWRQGSYQILVATSPELLTPASADVWDSGRVRSADSVAVRYAGVPLRASTRYHWTVRVWNTEGRAAGTASPAVFETGLMSTDGVGGWDGARWIGMKGKVPGSPGAPLLRTRETLGCGDGRTVGDARLYISALGVYEAHVNGERVTVRQDGERTLELLPPGWTNYDARVDYLTYDVTVLLADGPEVTLAVVLGNGWYNGRVSEGSTYHTQSGNALAVKAKLLIRYTDGTTRSVVTGTSGGWKATDTGPFRADDLYDGQTYDARRELPGWTAPGFDDTAWSDVEHIAFEDRYPGVRLRAYPGESARFVDRWDRRPQSVTVITGVTGQDGSPHGRGRVVVDPARTVTDPAKAATAQVTLAAGETAVFDLGQNMVGVPRYGVRGPAGARVEFRFAEILNDDSAGADGPEGSLYRANLRSAKATSTYILKGDPEGETHQDSLTFYGFRHVSVTASETVTVTGLTGRVATSAVRETGTVTTNDPHVDKLASNIRWGQRGNYLWVPTDCPQRDERLGWTGDTQVFAVTGLYNADAYTFLSHFQDTVVDSQAIYGADGAQYTGVAPGGRYNFPGGGSGWADCGVVLPWTLWQMTGDTTVVEDNWPSMVRYLDWIRRQTGDTYAGQGSLTGDWLAPQKTSAQLMSDAYYGYSAHLMARMARAIGRAEEAATYERLFGRIRQAFIARYLSTEGGRVTVRSGLGDASPIEPGSDPNEKTEDNSQSALLWVLKLGFYENEAQRRALVALLADDIRNDAAHKEAHPDSVRVRYPENTLSVGFLGVNILAPVLTDEGRADLAYELLHQDALPSWLFSVKNGATTVWERWNSWAEDAGFGPVGMNSFNHYAYGAIMEWMYAYMAGIARDPDAPGFKRFLLQPHLDPTGRITRVRATHESPYGEILSAWEVGSGGRRLAYDVAVPANSEATLRVPAVSADSVREGGTPLADVAGVRFLGHTEGVSSYLLPSGRYRLSADLR | 0.000 | 20 | 52 | 28 | 0.007 | 6 | 62 | 31 | 0.000 | 0.18 |

Source: patent US20240026407A1, “MODIFICATION OF SAPONINS” (GLAXOSMITHKLINE BIOLOGICALS SA, priority 2020, published 2024)
